Assay results taken from US20090311283A1.
Blank lines part the entries; values can stand above or below the substance they belong to.

How the values were obtained:
[1] = target: HLA-A*0201 (human)
[2] = target: HLA-A*2401 (human); assay: competition with a 125I-labelled probe peptide for purified HLA, gel filtration; binding relative to the standard peptide
[3] = target: HLA-A*0301 (human); assay: competition with 125I-labelled probe peptide for purified HLA, gel filtration; value relative to standard peptide
[4] = target: HLA-DRB1*0701 (human)
[5] = target: HLA-DRB1*0101 (human)
[6] = target: HLA-DRB1*0401 (human)
[7] = target: HLA-DRB5*0101 (human)
[8] = target: HLA-DRB1*1101 (human)

Substance: HBV ENV 177 8-mer peptide […] (peptide; other documents disagree on this pair)
- binding affinity ratio (IC50 of standard peptide / IC50 of test peptide) [1]: 0.0019

Substance: HBV ENV 177 9-mer peptide […] (peptide; other documents disagree on this pair)
- binding affinity ratio (IC50 of standard peptide / IC50 of test peptide) [1]: 0.066

Substance: HBV ENV 177 10-mer peptide […] (peptide; other documents disagree on this pair)
- binding affinity ratio (IC50 of standard peptide / IC50 of test peptide) [1]: 0.0011

- binding affinity ratio (IC50 of standard peptide / IC50 of test peptide) [2]: 0.0001
Substance: HBV ENV 362 peptide WYWGPSLY

- binding affinity ratio (IC50 of standard peptide / IC50 of test peptide) [3]: 0.0016
Substance: HBV POL 377 LWDFSQF (peptide)

Substance: […] (HBV ENV 249, 15-mer) (peptide; other documents disagree on this pair)
- binding affinity ratio (IC50 of standard peptide / IC50 of test peptide) [4]: 0.0047
- binding affinity ratio (IC50 of standard peptide / IC50 of test peptide) [5]: 0.0026
- binding affinity ratio (IC50 of standard peptide / IC50 of test peptide) [6]: 0.032
- binding affinity ratio (IC50 of standard peptide / IC50 of test peptide) [7]: 0.0069
- binding affinity ratio (IC50 of standard peptide / IC50 of test peptide) [8]: 0.0018
